± gives the uncertainty stated by the source.
Experiment: self-splicing fitness, log relative to wild type (ln ratio); higher = more splicing; Tetrahymena group I intron in knt gene, E. coli kanamycin selection, DiMSum; sequences stand for … in CUCUCU…GGAGGGAAAAGUUAUCAGGCAUGCACCUGGUAGCUAGUCUUUAAACCAAUAGAUUGCAUCGGUUUAAAAGGCAAGACCGUCAAAUUGCGGGAAAGGGGUCAACAGCCGUUCAGUACCAAGUCUCAGGGGAAACUUUGAGAUGGCCUUGCAAAGGGUAUGGUAAUAAGCUGACGGACAUGGUCCUAACCACGCAGCCAAGUCCUAAGUCAACAGAUCUUCUGUUGAUAUGGAUGCAGUUCACAGACUAAAUGUCGGUCGGGGAAGAUGUAUUCUUCUCAUAAGAUAUAGUCGGACCUCUCCUUAAUGGGAGCUAGCGGAUGAAGUGAUGCAACACUGGAGCCGCUGGGAACUAAUUUGUAUGCGAAAGUAUAUUGAUUAGUUUUGGAGUACUCGUGGUCG
Summary of the method: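 Library with all eight P1ex-region intron nucleotides randomised, intron inside the knt kanamycin-resistance gene on pET-22b(+), in E. coli BL21(DE3). Cells grew overnight at 37°C or 30°C on LB agar with or without 25 μg/mL kanamycin (plus 100 μg/mL carbenicillin, 50 μM IPTG, 0.2% rhamnose), in six replicate transformations. Pooled colonies were amplicon-sequenced on Illumina HiSeq 2500. DiMSum fitness is the error-weighted combination of wild-type-normalised replicate fold changes, kanamycin versus none.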

Sequence | self-splicing fitness (ln) (30 °C) | self-splicing fitness (ln) (37 °C)
CACAAGCAAUAUUACGCUUG | -3.66 ± 0.18 | -1.77 ± 0.15
UCACAGCAAUAUUACGCGCU | -3.85 ± 0.21 | -1.78 ± 0.16
AAGAAGCAAUAUUACGUACA | -0.642 ± 0.1 | -0.0821 ± 0.12
UUUCAGCAAUAUUACGUUCU |  | -1.89 ± 0.21
GACCAGCAAUAUUACGUUCC | -2.31 ± 0.26 | -1.76 ± 0.28
CUAUAGCAAUAUUACGCCGC |  | -2.27 ± 0.41
GAAAAGCAAUAUUACGCGUA | -1.27 ± 0.11 | -1.15 ± 0.11
AUGUAGCAAUAUUACGGGCG | -1.33 ± 0.091 | -1.28 ± 0.1
CGUAAGCAAUAUUACGGACG | -2.45 ± 0.12 | -1.89 ± 0.14
GAGAAGCAAUAUUACGGGGA | -2.34 ± 0.22 | -2.67 ± 0.28
UCGAAGCAAUAUUACGCGUU | -3.93 ± 0.21 | -1.47 ± 0.18
CAUUAGCAAUAUUACGGAAG | -0.396 ± 0.1 | -0.104 ± 0.12
AAAUAGCAAUAUUACGGAAA | -2.87 ± 0.26 | -1.53 ± 0.17
CACGAGCAAUAUUACGCGCG | -2.9 ± 0.24 | -1.25 ± 0.18
AUAGAGCAAUAUUACGAUCC | -3.08 ± 0.33 | -2.18 ± 0.36
GCUCAGCAAUAUUACGAGGC | -4.34 ± 0.42 | -1.42 ± 0.19
UCGUAGCAAUAUUACGGUGG | -2.84 ± 0.098 | -1.31 ± 0.086
CACUAGCAAUAUUACGAAAA | -3.29 ± 0.33 | -1.87 ± 0.26
GGUGAGCAAUAUUACGGGAC | -3.63 ± 0.29 | -1.85 ± 0.19
CCGCAGCAAUAUUACGCCAC | -3.33 ± 0.29 | -1.81 ± 0.28
AUCGAGCAAUAUUACGUUUU | -4.86 ± 0.36 | -1.23 ± 0.12
CUCAAGCAAUAUUACGGGGU | -3.4 ± 0.15 | -3.44 ± 0.19
UCGCAGCAAUAUUACGGACG | -1.44 ± 0.15 | -0.806 ± 0.13
UUUCAGCAAUAUUACGUCAG | -0.968 ± 0.089 | -0.726 ± 0.12
AUCAAGCAAUAUUACGUGCG | -1.03 ± 0.079 | 0.202 ± 0.099
CUUAAGCAAUAUUACGGCGG | -1.25 ± 0.095 | -0.194 ± 0.083

Sequence | self-splicing fitness (ln) (30 °C) | self-splicing fitness (ln) (37 °C)
UACAAGCAAUAUUACGACCA | -0.29 ± 0.12 | -0.203 ± 0.16
UGGUAGCAAUAUUACGGCGA | -0.171 ± 0.19 | 0.49 ± 0.15
CAGUAGCAAUAUUACGCAGC | -3.05 ± 0.34 | -1.3 ± 0.33
AUAUAGCAAUAUUACGCAUG | -1.66 ± 0.12 | -0.477 ± 0.14
UCGCAGCAAUAUUACGAAAA | -3.16 ± 0.43 | -2.2 ± 0.46
UAAAAGCAAUAUUACGCUCA | -0.334 ± 0.11 | 0.128 ± 0.12
AAAAAGCAAUAUUACGUAGU | -2.1 ± 0.076 | -1.69 ± 0.091
AUGAAGCAAUAUUACGUUAG | -1.97 ± 0.08 | -0.415 ± 0.11
UUCAAGCAAUAUUACGGGUA | -0.67 ± 0.085 | -0.182 ± 0.08
UCCUAGCAAUAUUACGACGU | -0.558 ± 0.098 | -0.499 ± 0.11
CGACAGCAAUAUUACGUUCG | -2.52 ± 0.15 | -2.18 ± 0.22
GUAAAGCAAUAUUACGCCCC | -0.801 ± 0.089 | -0.0225 ± 0.12
GAGUAGCAAUAUUACGGGCA | -1.18 ± 0.22 | -1.05 ± 0.19
GGAAAGCAAUAUUACGUAUG | -2.27 ± 0.1 | -2.04 ± 0.15
AAUAAGCAAUAUUACGUGCA | -0.334 ± 0.062 | 0.0616 ± 0.079
GAAGAGCAAUAUUACGCUCC | -2.52 ± 0.24 | 
AAGCAGCAAUAUUACGCUCG | -1.67 ± 0.15 | 0.286 ± 0.14
GUCGAGCAAUAUUACGGCAA | -3.13 ± 0.31 | -1.76 ± 0.29
AGCGAGCAAUAUUACGGGUC | -2.01 ± 0.13 | -2.66 ± 0.25
GGCUAGCAAUAUUACGGGAA | -0.617 ± 0.14 | -1.06 ± 0.2
CGUAAGCAAUAUUACGGGAU | -3.63 ± 0.18 | -3.29 ± 0.35
GGACAGCAAUAUUACGUGAG | 0.177 ± 0.058 | -0.254 ± 0.062
CGGCAGCAAUAUUACGGCCU | -1.23 ± 0.092 | -0.41 ± 0.088
UUCAAGCAAUAUUACGCCGG | -0.231 ± 0.097 | -0.469 ± 0.13
AUCUAGCAAUAUUACGCGCA | -0.448 ± 0.1 | -0.485 ± 0.11
UCGUAGCAAUAUUACGACCA | -1.35 ± 0.3 | 

Sequence | self-splicing fitness (ln) (30 °C) | self-splicing fitness (ln) (37 °C)
CCGUAGCAAUAUUACGUUAG | -2.22 ± 0.14 | -0.971 ± 0.14
AUAUAGCAAUAUUACGUUAU | -3.02 ± 0.13 | -1.65 ± 0.12
GCUGAGCAAUAUUACGAGGG | -2.71 ± 0.16 | -2.45 ± 0.31
AGGCAGCAAUAUUACGAUGU | -2.41 ± 0.094 | -0.487 ± 0.1
AGUCAGCAAUAUUACGCCCU | -1.1 ± 0.24 | -0.315 ± 0.3
GCAGAGCAAUAUUACGGGCU | -1.78 ± 0.3 | -2.03 ± 0.39
UAUAAGCAAUAUUACGUCAG | -1.22 ± 0.11 | -0.547 ± 0.17
GCAGAGCAAUAUUACGCUUC | -3.9 ± 0.27 | -2.22 ± 0.2
UUCCAGCAAUAUUACGGAAA | -1.86 ± 0.13 | -1.34 ± 0.11
CUUCAGCAAUAUUACGAAGU | -2.31 ± 0.17 | -2.66 ± 0.38
CCCAAGCAAUAUUACGUAGG | -2.17 ± 0.067 | -1.56 ± 0.082
CCAAAGCAAUAUUACGCGGU | -4.85 ± 0.29 | -1.78 ± 0.21
UUCGAGCAAUAUUACGCCCA | -2.1 ± 0.31 | -1.15 ± 0.22
UGGUAGCAAUAUUACGCCUG | 0.0915 ± 0.14 | 0.675 ± 0.2
CAGGAGCAAUAUUACGUUGU | -3.34 ± 0.17 | -2.26 ± 0.19
UCUGAGCAAUAUUACGCCUA |  | -0.697 ± 0.44
GCAGAGCAAUAUUACGAGUU | -4.28 ± 0.16 | -1.82 ± 0.095
GAACAGCAAUAUUACGUCAA | -1.14 ± 0.057 | -0.166 ± 0.06
CAUGAGCAAUAUUACGCCAA | -3.67 ± 0.41 | -2.53 ± 0.36
GUCCAGCAAUAUUACGAAUU | -0.818 ± 0.078 | 0.257 ± 0.097
CACGAGCAAUAUUACGCGCC |  | -0.83 ± 0.48
CUCCAGCAAUAUUACGUUAC | -3.6 ± 0.18 | -2.42 ± 0.2
CAUUAGCAAUAUUACGCCAG | -0.337 ± 0.094 | 0.267 ± 0.12
CUAGAGCAAUAUUACGUGAG | -0.395 ± 0.074 | 0.0704 ± 0.095
CAACAGCAAUAUUACGUCGG | -0.576 ± 0.052 | -0.369 ± 0.065
